Ends that are not written are not given here. FAM = 5(6)-carboxyfluorescein; Ahx = NCCCCCC(=O)O

Two substances from patent publication US11571484B2, “Compositions that target tumor-associated macrophages and methods of use therefor” (Sanford Burnham Prebys Medical Discovery Institute, priority 2017, dated 2023) can be followed below.

The target of this experiment is T1, recombinant mouse macrophage mannose receptor rmMMR/CD206 (Mus musculus, UniProt Q61830).
T1 construct: purchased R&D Systems 2535-MM-050
T1 sequence (Q61830 20-1456): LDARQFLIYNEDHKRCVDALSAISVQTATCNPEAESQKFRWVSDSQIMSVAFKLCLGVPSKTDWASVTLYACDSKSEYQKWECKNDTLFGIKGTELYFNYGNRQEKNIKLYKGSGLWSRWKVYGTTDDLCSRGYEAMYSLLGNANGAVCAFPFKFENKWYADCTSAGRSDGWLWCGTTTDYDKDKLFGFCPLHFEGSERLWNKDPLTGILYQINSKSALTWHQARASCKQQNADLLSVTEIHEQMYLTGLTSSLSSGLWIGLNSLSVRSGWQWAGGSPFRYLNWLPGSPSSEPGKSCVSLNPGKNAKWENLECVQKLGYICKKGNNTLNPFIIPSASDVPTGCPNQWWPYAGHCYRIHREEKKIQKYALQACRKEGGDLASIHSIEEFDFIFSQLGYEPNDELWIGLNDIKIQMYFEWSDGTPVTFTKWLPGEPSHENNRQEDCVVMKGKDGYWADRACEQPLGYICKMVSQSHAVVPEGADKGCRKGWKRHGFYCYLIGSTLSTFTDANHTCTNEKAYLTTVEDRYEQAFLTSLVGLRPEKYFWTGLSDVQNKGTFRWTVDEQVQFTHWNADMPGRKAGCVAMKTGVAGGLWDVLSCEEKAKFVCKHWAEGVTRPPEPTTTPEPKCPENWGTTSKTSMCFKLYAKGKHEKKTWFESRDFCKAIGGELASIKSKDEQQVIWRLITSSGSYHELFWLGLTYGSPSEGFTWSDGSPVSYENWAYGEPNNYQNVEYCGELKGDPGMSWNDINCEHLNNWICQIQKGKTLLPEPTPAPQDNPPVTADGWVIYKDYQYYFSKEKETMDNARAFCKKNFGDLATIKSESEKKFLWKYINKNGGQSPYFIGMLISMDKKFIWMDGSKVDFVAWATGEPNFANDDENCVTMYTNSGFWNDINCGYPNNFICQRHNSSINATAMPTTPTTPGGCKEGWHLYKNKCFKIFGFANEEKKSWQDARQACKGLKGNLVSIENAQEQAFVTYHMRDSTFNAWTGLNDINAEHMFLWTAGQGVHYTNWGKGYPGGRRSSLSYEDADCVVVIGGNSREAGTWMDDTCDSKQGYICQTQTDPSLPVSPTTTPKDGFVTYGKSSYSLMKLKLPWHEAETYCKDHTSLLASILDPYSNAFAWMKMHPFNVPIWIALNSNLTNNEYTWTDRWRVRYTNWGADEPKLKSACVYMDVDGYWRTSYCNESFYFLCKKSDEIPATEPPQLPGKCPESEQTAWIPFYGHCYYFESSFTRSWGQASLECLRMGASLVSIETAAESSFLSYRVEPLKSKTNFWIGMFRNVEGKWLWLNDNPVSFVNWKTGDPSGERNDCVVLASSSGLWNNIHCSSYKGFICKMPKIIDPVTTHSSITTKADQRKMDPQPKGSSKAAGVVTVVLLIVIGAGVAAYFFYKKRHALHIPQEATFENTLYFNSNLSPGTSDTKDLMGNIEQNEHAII
The experiment can be described thus: Fluorescence anisotropy assay with mouse recombinant CD206. The class given is binding. The following applies: 50 nM FAM peptide, 1 μM protein, 25 °C. The protocol:
The stocks of fluorescent ligands (FAM-UNO, FAM-CSPGAK and FAM-CPMTDNE) in mQ water were stored at −20° C. […], 150 mM NaCl, 1 mM CaCl2, 0.1% Pluronic F-127, pH 7.4) on the day of experiment. The concentration of fluorescent ligands was determined by absorbance of FAM (E495=75000 M^−1 cm^−1).
The recombinant mouse macrophage mannose receptor rmMMR/CD206 (R&D Systems, catalog number: 2535-MM-050) and recombinant mouse CD163 (R&D Systems, catalog number: 7435-CD-050) were reconstituted at 1 mg/ml in IB, aliquoted and stored at −20° C. To generate linearized version of cyclic FAM-UNO peptide, the peptide at 1 mM concentration was preincubated for 24 h at room temperature in a dark place with 3 mM DTT and diluted with IB 2×10^5 times before the FA assay. The control experiment with FAM-CPMTDNE peptide (FIG. 22) was performed to rule out the possibility of disulphide bond formation, which could affect the binding properties of linear peptides. Initially, the peptide was preincubated in DMSO for 4 days at room temperature to enhance the disulphide bond formation, and then diluted in IB buffer with 3 mM DTT, and the disappearance of preformed dimer was observed as a change in FA signal.
In all experiments, FA signal measurements were done under pseudo first-order conditions with 50 nM singly labelled FAM peptides and 1 μM proteins. […] Assays were carried out in kinetic mode in a total volume of 30 μl at 25° C. on the PHERAstar (BMG Labtech, Germany) microplate reader using an optical module with excitation and emission filters of 485 nm (slit 10 nm) and 520 nm (slit 10 nm), respectively. Dual emission detection mode allows simultaneous recording of intensities that are parallel (l) and perpendicular (1) to the plane of excitation light. […] The background fluorescence (receptor and buffer components in the absence of fluorescent ligand) was subtracted independently from all intensity channels. FA signals at time t after initiation of binding reaction was calculated as parameters r(t) from the equation: […]
A general note: In fluorescence polarisation assays a small probe gives low polarisation when free and higher when bound to something large.

In the case of “FAM-UNO: FAM-labeled UNO peptide CSPGAKVRC (SEQ ID NO: 1); 5(6)-carboxyfluorescein with 6-aminohexanoic acid spacer at the N-terminus ({FAM-Ahx}-CSPGAKVRC; cysteine pairing not given here)”, the “change in fluorescence anisotropy (interaction) with mouse recombinant CD206” value is “did not cause a change in the fluorescence anisotropy”.
As for “FAM-CSPGAK: FAM-labeled linear CSPGAK (SEQ ID NO: 6) (not fully specified; FAM label)”, the “change in fluorescence anisotropy (interaction) with mouse recombinant CD206” value is recorded as “clear time-dependent increase of anisotropy”.
